Results: patent US20240018502A1
Numbering of substitutions follows the chain as printed. Names may count otherwise. One block for each binder: values may come before it.

Biological target: plasma purified human complement protein C3 (human) (UniProt P01024)
Assay: cell-based or functional assay

plasma purified human complement protein C3 (human), sequence (P01024 23-667, chain 1 of 2): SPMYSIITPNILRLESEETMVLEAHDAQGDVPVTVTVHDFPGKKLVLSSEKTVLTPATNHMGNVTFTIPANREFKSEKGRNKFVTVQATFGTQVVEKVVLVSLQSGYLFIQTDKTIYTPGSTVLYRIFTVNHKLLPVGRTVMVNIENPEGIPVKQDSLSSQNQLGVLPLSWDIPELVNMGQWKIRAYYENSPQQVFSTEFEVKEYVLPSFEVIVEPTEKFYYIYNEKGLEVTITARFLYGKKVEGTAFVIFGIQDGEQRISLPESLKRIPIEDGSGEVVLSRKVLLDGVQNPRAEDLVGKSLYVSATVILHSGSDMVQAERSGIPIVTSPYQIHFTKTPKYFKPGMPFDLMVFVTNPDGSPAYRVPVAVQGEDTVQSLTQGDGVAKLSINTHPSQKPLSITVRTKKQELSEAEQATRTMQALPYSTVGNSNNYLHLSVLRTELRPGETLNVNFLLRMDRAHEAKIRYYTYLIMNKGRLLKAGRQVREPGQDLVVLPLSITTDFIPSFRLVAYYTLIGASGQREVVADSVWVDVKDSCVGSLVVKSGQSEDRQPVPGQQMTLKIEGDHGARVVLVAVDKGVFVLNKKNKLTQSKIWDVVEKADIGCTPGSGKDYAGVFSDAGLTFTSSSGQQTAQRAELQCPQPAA
plasma purified human complement protein C3 (human), sequence (P01024 672-1663, chain 2 of 2): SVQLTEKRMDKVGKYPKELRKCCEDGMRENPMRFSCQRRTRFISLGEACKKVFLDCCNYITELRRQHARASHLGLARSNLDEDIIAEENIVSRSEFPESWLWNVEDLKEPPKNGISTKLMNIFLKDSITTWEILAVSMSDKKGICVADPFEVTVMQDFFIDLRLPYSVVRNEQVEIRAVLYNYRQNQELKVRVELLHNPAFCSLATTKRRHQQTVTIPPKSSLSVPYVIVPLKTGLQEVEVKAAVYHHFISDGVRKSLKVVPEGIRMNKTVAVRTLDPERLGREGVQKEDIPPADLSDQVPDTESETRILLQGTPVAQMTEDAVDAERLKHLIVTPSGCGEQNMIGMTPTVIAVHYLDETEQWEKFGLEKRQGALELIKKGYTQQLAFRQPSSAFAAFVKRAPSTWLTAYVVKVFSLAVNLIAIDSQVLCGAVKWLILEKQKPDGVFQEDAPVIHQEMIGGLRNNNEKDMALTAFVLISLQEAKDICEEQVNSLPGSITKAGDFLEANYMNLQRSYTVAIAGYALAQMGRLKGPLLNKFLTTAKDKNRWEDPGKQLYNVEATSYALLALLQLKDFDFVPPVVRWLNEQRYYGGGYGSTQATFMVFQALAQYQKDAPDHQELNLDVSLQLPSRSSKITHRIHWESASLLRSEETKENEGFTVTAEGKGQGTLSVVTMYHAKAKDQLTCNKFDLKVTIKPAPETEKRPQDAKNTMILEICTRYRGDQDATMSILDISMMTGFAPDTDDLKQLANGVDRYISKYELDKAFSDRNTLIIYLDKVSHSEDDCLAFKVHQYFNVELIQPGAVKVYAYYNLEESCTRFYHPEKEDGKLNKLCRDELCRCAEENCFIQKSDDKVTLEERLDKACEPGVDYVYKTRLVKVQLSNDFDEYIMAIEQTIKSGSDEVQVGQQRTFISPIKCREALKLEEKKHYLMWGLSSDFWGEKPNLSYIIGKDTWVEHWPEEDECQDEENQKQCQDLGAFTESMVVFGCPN

EC50 hC3 cleavage: 335 nM
B3: MTSP-1 protease domain Q38K/I41R/Y60gG/F99L/C122S/G151N/Q192G (enzyme)
chain: VVGGTDADEGEWPWQVSLHALGKGHRCGASLISPNWLVSAAHCYIDDRGFRGSDPTQWTAFLGLHDQSQRSAPGVQERRLKRIISHPFFNDFTLDYDIALLELEKPAEYSSMVRPISLPDASHVFPAGKAIWVTGWGHTQYGGTNALILQKGEIRVINQTTCENLLPQQITPRMMCVGFLSGGVDSCGGDSGGPLSSVEADGRIFQAGVVSWGDGCAQRNKPGVYTRLPLFRDWIKENTGV

EC50 hC3 cleavage: 116 nM
B6: MTSP-1 protease domain Q38R/I41S/Y60gW/F99L/C122S/G151N/Q192E (enzyme)
chain: B3 chain with K23R, R26S, G52W, G188E

EC50 hC3 cleavage: 388 nM
B7: MTSP-1 protease domain Q38R/I41R/Y60gL/F99L/C122S/G151N/Q192G (enzyme)
chain: B3 chain with K23R, G52L

EC50 hC3 cleavage: 248 nM
B11: MTSP-1 protease domain Q38R/I41R/F99L/C122S/G151N/Q192G (enzyme)
chain: B3 chain with K23R, G52Y

EC50 hC3 cleavage: 197 nM
B15: MTSP-1 protease domain Q38R/I41R/Y60gF/F99L/C122S/G151N/Q192G (enzyme)
chain: B3 chain with K23R, G52F

EC50 hC3 cleavage: 15 nM
B22: MTSP-1 protease domain Q38S/I41S/Y60gW/F99L/C122S/G151D/Q192T (enzyme)
chain: B3 chain with K23S, R26S, G52W, N145D, G188T

EC50 hC3 cleavage: 35.1 nM
B23: MTSP-1 protease domain Q38K/I41S/Y60gW/F99L/C122S/G151N/Q192G (enzyme)
chain: B3 chain with R26S, G52W

Second part, the binder before the results:

B1: MTSP-1 I41E/F99L/C122S/G151N/Q192T (enzyme)
chain: B3 chain with K23Q, R26E, G52Y, G188T
EC50 of hC3 cleavage: 124 nM

B2: MTSP-1 protease domain Q38K/I41D/Y60gG/F99L/C122S/G151N (enzyme)
chain: B3 chain with R26D, G188Q
EC50 hC3 cleavage: 52.7 nM

B4: MTSP-1 protease domain I41E/C122S/G151N/Q175L/Q192A (enzyme)
chain: B3 chain with K23Q, R26E, G52Y, L94F, Q169L, G188A
EC50 hC3 cleavage: 45 nM

B5: MTSP-1 protease domain I41S/F99M/C122S/G151N/Q175L/Q192G (enzyme)
chain: B3 chain with K23Q, R26S, G52Y, L94M, Q169L
EC50 hC3 cleavage: 62 nM

B8: MTSP-1 protease domain I41E/F99L/C122S/G151N/Q175L/Q192A (enzyme)
chain: B3 chain with K23Q, R26E, G52Y, Q169L, G188A
EC50 hC3 cleavage: 28.5 nM

B9: MTSP-1 protease domain I41S/F99L/C122S/G151H/Q175L/Q192V (enzyme)
chain: B3 chain with K23Q, R26S, G52Y, N145H, Q169L, G188V
EC50 hC3 cleavage: 20.9 nM

B10: MTSP-1 protease domain I41E/F99L/C122S/G151N/Q175R/Q192H (enzyme)
chain: B3 chain with K23Q, R26E, G52Y, Q169R, G188H
EC50 hC3 cleavage: 102 nM

B12: MTSP-1 protease domain I41G/F99L/C122S/G151N/Q192A (enzyme)
chain: B3 chain with K23Q, R26G, G52Y, G188A
EC50 hC3 cleavage: 61 nM

B13: MTSP-1 protease domain Q38K/I41G/Y60gW/F99L/C122S/G151N/Q192A (enzyme)
chain: B3 chain with R26G, G52W, G188A
EC50 hC3 cleavage: 9.96 nM

B14: MTSP-1 I41D/Y59F/C122S/G151N/Q192T (enzyme)
chain: B3 chain with K23Q, R26D, Y44F, G52Y, L94F, G188T
EC50 of hC3 cleavage: 56.7 nM

B16: MTSP-1 protease domain I41S/F99M/C122S/G151N/Q175G/Q192R (enzyme)
chain: B3 chain with K23Q, R26S, G52Y, L94M, Q169G, G188R
EC50 hC3 cleavage: 95.3 nM

B17: MTSP-1 protease domain I41S/F99M/C122S/G151N/Q175E/Q192R (enzyme)
chain: B3 chain with K23Q, R26S, G52Y, L94M, Q169E, G188R
EC50 hC3 cleavage: 297 nM

B18: MTSP-1 protease domain Q38F/I41S/Y60gA/C122S/G151N/Q192R (enzyme)
chain: B3 chain with K23F, R26S, G52A, L94F, G188R
EC50 hC3 cleavage: 33.1 nM

B19: MTSP-1 I41D/Y59F/D96E/F99L/C122S/G151N/Q192T (enzyme)
chain: B3 chain with K23Q, R26D, Y44F, G52Y, D91E, G188T
EC50 of hC3 cleavage: 54.9 nM

B20: MTSP-1 protease domain I41E/F99L/C122S/G151N/Q192V (enzyme)
chain: B3 chain with K23Q, R26E, G52Y, G188V
EC50 hC3 cleavage: 156 nM

B21: MTSP-1 protease domain Q38H/I41S/Y60gW/C122S/G151H/Q192A (enzyme)
chain: B3 chain with K23H, R26S, G52W, L94F, N145H, G188A
EC50 hC3 cleavage: 8.96 nM
